Assay: yeast display, Sf9 membrane polyspecificity reagent, FACS + sequencing; frameworks hold sequencing errors
Method in brief: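 Sorting gates, low and high (top ~1%), were placed on anti-HA fluorescence to track expression and on streptavidin fluorescence to track reagent binding. A clone's polyreactivity label is taken from the gate it came out of. The reagent was 10% biotinylated, detergent-solubilized Sf9 membrane, applied for 1 hour at 4 °C to galactose-induced yeast display cells.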

Row | Sequence | polyreactivity (PSR sort gate)
1 | QVQLVESGGGLVQAGGSLRLSCAASGFTFYKYAMGWYRQAPGKERELVAAISRRGTSTYYADSVKGRFTISRDNAKNTVYLQMNSLKPEDTAVYYCNRDVSLSAFDYWGQGTQVTVSS | high polyreactivity
2 | QVQLVESGGGLVQAGGSLRLSCAASGFTFYKYAMGWYRQAPGKERELVAGIRRGGTNYADSVKGRFTISRDNAKNTVYLQMNSLKPEDTAVYYCAADVRPYYSAYRGRYYYWGQGTQVTVSS | high polyreactivity
3 | QVQLVESGGGLVQAGGSLRLSCAASGFTFYKYVMGWYRQAPGKERELVAAISYSSGSTYYADSVKGRFTISRDNAKNTVYLQMNSLKPEDTAVYYCAARTYYAPQNMGYWGQGTQVTVSS | high polyreactivity
4 | QVQLVESGGGLVQAGGSLRLSCAASGFTFYLNAKGWYRQAPGKERELVAAITGSGGSTYYADSVKGRFTISRDNAKNTVYLQMNSLKPEDTAVYYCAADLYFYVISSGYGFYYWGQGTQVTVSS | low polyreactivity
5 | QVQLVESGGGLVQAGGSLRLSCAASGFTFYLNAMGLYRQAPGKERELVAGISWRGGRTYYADSVKGRFTISRDNAKNSVYLQMNSLKAEDTAVYYCAAVTYSFQKTDYYWGQGTQVTVSS | high polyreactivity
6 | QVQLVESGGGLVQAGGSLRLSCAASGFTFYLYAMGWYRQAPGKERELVASISSGGRTYYADSVKGRFTISRDNAKNTVYLQMNSLKPEDTAVYYCAVSPYSRRKYEYYYWGQGTQVTVSS | high polyreactivity
7 | QVQLVESGGGLVQAGGSLRLSCAASGFTFYLYGMGWYRPAPGKERELVAGIDSDGRTNYADSVKGRFTISRDNAMNTVYLQMNSLKPEDTAVYYCAVEWAGGYDYYYWGQGSQVTVSS | high polyreactivity
8 | QVQLVESGGGLVQAGGSLRLSCAASGFTFYLYTMGWYRQAPGKERELVAAINYSGGRTYYADSVKGRFTISRDNAKNTVYLQMNSLKPEDTAVYYCYPRVKNLQAYDYWGQGTQVTVSS | high polyreactivity
9 | QVQLVESGGGLVQAGGSLRLSCAASGFTFYPYAMGWYRQAPGKERELVAASTASGGSTYYADSVKGRFTISRDNAKNTVYLQMNSLKPEDTAVFYCAKGWVSYWRYKNEYWGQGTQVTVSS | high polyreactivity
10 | QVQLVESGGGLVQAGGSLRLSCAASGFTFYPYTMGWYRQAPGKERELVAVITYDSTYYADSVKGRFTISRDNAKNTVYLQMNSLKPEDTAVYYCNATGYSVSRSAYWYGWYDYWGQGTQVTVSS | low polyreactivity
11 | QVQLVESGGGLVQAGGSLRLSCAASGFTFYQYAMGWSRPAPGKERELVAGISRGGRTYYADSVKGRFTISRDNANNTVYLQMNSLKPEDTAVYYCAARYFYYKNVYAYRTYYYWGQGTQVTVSS | high polyreactivity
12 | QVQLVESGGGLVQAGGSLRLSCAASGFTFYQYAMGWYRQAPGKERELVASISWSGGRTYYADSVKGRFTISRDNAKKTVYFQKNSLKPEDTAVYYCAARAYRIAGYDYWGQGTQVTVSS | high polyreactivity
13 | QVQLVESGGGLVQAGGSLRLSCAASGFTFYRNAMGWYRQAPGKERELVAAISRGGRTYYADSVKGRFTISRDNAKNTVYLQMNSLKPEDTAVYYCAVGYSGYGSSMDYWGQGTQVTVSS | high polyreactivity
14 | QVQLVESGGGLVQAGGSLRLSCAASGFTFYRNAMGWYRQAPGKEREVVAAISISGGSTYYADSVKGRFTISRDNAKNTVYLQMNSLKPEDTAVYYCAAYYYRDRYSRVKVTYWGLGTQVTVSS | high polyreactivity
15 | QVQLVESGGGLVQAGGSLRLSCAASGFTFYRNTMGWYRQAPGKERELVATITFSGTRTYYADSVKGRFTISRDNAKNTVYLQMNSLKPEDTAVYYCNRVRYRQSAFDFWGQGTQVTVSS | high polyreactivity
16 | QVQLVESGGGLVQAGGSLRLSCAASGFTFYRYAMGWYRKAPGKERELVAAISSSGGTTYYADSVKVRFTISRDHAKNTVYLQMNRLKPEDTAVYYCAARGWPNWGWGYDYWGQGTQVTVSS | high polyreactivity
17 | QVQLVESGGGLVQAGGSLRLSCAASGFTFYRYAMGWYRQAPGKERELVAAFSGSGGSTYYADSVKGRFTISRDNAKNTVYLQMNSLKPEDTAVYYCNTVWFYGAKYDYWGQGTQVTVSS | high polyreactivity
18 | QVQLVESGGGLVQAGGSLRLSCAASGFTFYRYAMGWYRQAPGKERELVAAISKRGGNTYYADSVKGRFTISRDNAKNTVYLQMNSLKPEDTAVYYCAADFATWDAKPYDYWGQGTQVTVSS | high polyreactivity
19 | QVQLVESGGGLVQAGGSLRLSCAASGFTFYRYAMGWYRQAPGKERELVAAITRSGSRSYYADSVKGRFTISRDNAKNTVYLQMNSLKPEDTAVYSCNGPRPASTDRRRYNYCGQGTQVTVSS | high polyreactivity
20 | QVQLVESGGGLVQAGGSLRLSCAASGFTFYRYAMGWYRQAPGKERELVATISASGGSTYYADSVKGRFTISRDNAKNTVYLQMNSLKPEDTAVYYCAAEHYLWGYVVVREDYWGQGTQVTVSS | high polyreactivity
21 | QVQLVESGGGLVQAGGSLRLSCAASGFTFYRYAMGWYRQAPGNERELVAAISSGGRTTYADSVKGRFTISRDNANNTVYLQMNSLKPQDTAVYYCVFVYVYDYYYWGQGTQVTVSS | high polyreactivity

Row | Sequence | polyreactivity (PSR sort gate)
22 | QVQLVESGGGLVQAGGSLRLSCAASGFTFYRYAMGWYRQAPWKERELVAVISGNAGSTYYADSVKGRFTISRDNAKNTVYLQMNSLKPEDTAVYYCNARKARAYGTFEYWGQGTQVTVSS | high polyreactivity
23 | QVQLVESGGGLVQAGGSLRLSCAASGFTFYRYTMGCYRQAPGKERELVAAISSGDSTYYADSVKGRFTISRDNAKNTVYLQMNSLKPEDTAVYYCAARQYSRGAIVYYWGQGTQVTVSS | high polyreactivity
24 | QVQLVESGGGLVQAGGSLRLSCAASGFTFYSYAMGWSRQAPGKERELVAAISGGGGSTYYADSVKGRFTISRDNAKNTVYLQMNSLKPEDTAVYYCAKRPAYRGYGLGYYWGQGTQVTVSS | high polyreactivity
25 | QVQLVESGGGLVQAGGSLRLSCAASGFTFYSYAMGWYRQAPGKERELVAAISWSGTRTYYADSVKGRFTISRDNAKNTVYLQMNSLKPEDTAVYYCAARGYRYGYGYWGQGTQVTVSS | high polyreactivity
26 | QVQLVESGGGLVQAGGSLRLSCAASGFTFYSYAMGWYRQAPGKERELVAAITDRGGSTYYADSVKGRFTISRDNAKNTVYLQMNSLKPEDTAVYYCAAASGIRSYSYGWLGREYYWGQGTQVTVSS | high polyreactivity
27 | QVQLVESGGGLVQAGGSLRLSCAASGFTFYSYAMGWYRQAPGKERELVAAITQSGGSTYYADSVKGRFTISRDNAKNTVYLQMNSLKPEDTAVYYCAADIYNDYDYGYYYWGQGTQVTVSS | low polyreactivity
28 | QVQLVESGGGLVQAGGSLRLSCAASGFTFYSYAMGWYRQAPGKERELVAAITRSGGNTYYADSVKGRFTISRDNAKNTVYLQMNSLKPEDTAVYYCAAPGKGISPSHYYWGQGPQVTVSS | high polyreactivity
29 | QVQLVESGGGLVQAGGSLRLSCAASGFTFYSYAMGWYRQAPGKERELVASISQSGGRTYYADSVKGRFTISRDNAKNTVYLQMNSLKPEDTAVYYCARQRSYGRSSYSYGYDYWGQGTQVTVSS | high polyreactivity
30 | QVQLVESGGGLVQAGGSLRLSCAASGFTFYSYAMGWYRQSPGKERELVAAISWSGTRTYYADSVKGRFTISRDTAKNTVYLQMNSLKPEDTAVYYCAARGYRYGYGYWGQGTQVTVSS | high polyreactivity
31 | QVQLVESGGGLVQAGGSLRLSCAASGFTFYSYVMGWYRQAPGKERELVAAIDPSGGRTYYADSVKGRFTISRDYAKNTVYLQMNSLKPVDTAVYYCAVPRVDYWGQGTQVTVSS | high polyreactivity
32 | QVQLVESGGGLVQAGGSLRLSCAASGFTFYSYVMGWYRQAPGKERELVAAISWSGGSTYYADSVKGRFTISRDNAKNTVYLQMNSLKPEDTAVYYCAARRYASRTGYLYDYWGQGTQVTVSS | high polyreactivity
33 | QVQLVESGGGLVQAGGSLRLSCAASGFTFYTNVMGWYRQAPGKERELVAAINSGGSTNYADSVKGRFTISRDNAKNTVYLQRNSLKPEDTAVYYCNKRGTEIGYDYWGQGTQVTVLS | low polyreactivity
34 | QVQLVESGGGLVQAGGSLRLSCAASGFTFYTYAMGWYRQAPGKERELVADISSGGSTNYADSVKGRFTISRDNAKNTVYLQMNSLKPEDTAVYYCSADYYFLDWYDYWGQGTQVTVSS | low polyreactivity
35 | QVQLVESGGGLVQAGGSLRLSCAASGFTFYTYMGWYRQAPGKERELVAAISWSGDSTYYADSVKGRFTISRDNAKNTVYLQMKSLKPEDTAVYYCAARRVFYNGYYVNVGSFYYWGQGTQVTVSS | low polyreactivity
36 | QVQLVESGGGLVQAGGSLRLSCAASGFTFYTYTMGWYRQAPGKERELVAVITSRGTRTYYADSVKGRFTISRDNAKNTVYLQMNSLKPEDTAVYYCNKGAGWSFGYWGQGTQVTVSS | high polyreactivity
37 | QVQLVESGGGLVQAGGSLRLSCAASGFTFYTYVMGWYRQAPGKERELVAAITSGVSTNYADSVKGRFTISRDNAKNTVYLQMNSVKPEDTAVYYCAAGYPSWYYGYPYDSWGQGTQVTVSS | low polyreactivity
38 | QVQLVESGGGLVQAGGSLRLSCAASGFTFYVYAMGWDRQAPGKEREFVAAISSSGGSTYYADSVKGRFTISRDNAKNTVYLQMNSLKPEDTAVYYCAALAYSTTRGRLDYWGQGTQVTVSS | high polyreactivity
39 | QVQLVESGGGLVQAGGSLRLSCAASGFTFYVYAMGWYRQAPGKERELVAAISRGGSTYYADSVKGRFTISRDNAKNTVYLQMNSLKPEDTAVYYCNRVPYVSSSKVRYSNGFDYWGQGTQVTVSS | low polyreactivity
40 | QVQLVESGGGLVQAGGSLRLSCAASGFTFYVYVMGWYRPAPGKERELVAGISRGGSTYYADSVKGRFTISRDTAKNTVYLQMNSLKPEDTAVYYCNARRAWSSTYGYWGQGTQVTVSS | high polyreactivity
41 | QVQLVESGGGLVQAGGSLRLSCAASGFTFYWNTMGWYRPAPGKERELVAAISWSGGDTDYADSVKGRFTISRDNAKNTVYLQMNSLKPEDTAVYYCNSIYVSDRSSAVSFDYWGQGTQVNVSS | low polyreactivity

Source: the nanobody polyreactivity screen of Harvey et al. (2022)
